{"source": "paper PMC3691878", "experiment_in_all_cases": "SEC", "key": {"[1]": {"biological_target": "rainbow trout (Oncorhynchus mykiss) BALM (rainbow trout (Oncorhynchus mykiss))"}, "[2]": {"biological_target": "rainbow trout (Oncorhynchus mykiss) RANKL (rainbow trout (Oncorhynchus mykiss))"}, "[3]": {"biological_target": "rainbow trout (Oncorhynchus mykiss) TRAIL-like (rainbow trout (Oncorhynchus mykiss))"}}, "data": [{"substance": "rainbow trout (Oncorhynchus mykiss) BALM (ligand)", "values": [{"measurement": "stoichiometry N", "setting": "[1]", "value": 3}]}, {"substance": "rainbow trout (Oncorhynchus mykiss) RANKL (ligand)", "values": [{"measurement": "stoichiometry N", "setting": "[2]", "value": 3}]}, {"substance": "rainbow trout (Oncorhynchus mykiss) TRAIL-like (ligand)", "values": [{"measurement": "stoichiometry N", "setting": "[3]", "value": 3}]}]}
